Test results as given in publication PMC4968834, “Generation and Characterization of an IgG4 Monomeric Fc Platform” (PLoS ONE, 2016).
Where two headings read alike, the source gives them in different places. One block for each molecule: values may come before it.

Legend:
[1] = molecular target: T1, Recombinant human FcRn (soluble) (human, UniProt P55899 24-297; P61769 21-119, biotin (biotinylated FcRn; which chain and site not stated)); experiment: BLI; Octet384; biotinylated FcRn captured on streptavidin biosensors, Fc variants in solution; 100 mM MES pH 6.0, 3 mg/ml BSA, 0.05% Tween 20; steady-state analysis, apparent KD, avidity binding format
[2] = molecular target: Clone 4 (C4), monomeric IgG4 Fc with YTE; experiment: BLI; Octet384; binding of inactive IdeS (C94S) to Fc; who was immobilised not told
[3] = molecular target: T1, Recombinant human FcRn (soluble); experiment: cell-based or functional assay

Molecule: IgG4 wildtype Fc (domain or fragment)
Kd [1]: 140 nM

Molecule: Inactive form of IgG-degrading enzyme of S. pyogenes (IdeS, C94S)
Kd [2]: 3000 nM

B1: Onart-Fab-C4 (Fab of Onartuzumab fused to monomeric Fc C4) (Fc fusion)
chain 1: EVQLVESGGGLVQPGGSLRLSCAASGYTFTSYWLHWVRQAPGKGLEWVGMIDPSNSDTRFNPNFKDRFTISADTSKNTAYLQMNSLRAEDTAVYYCATYRSYVTPLDYWGQGTLVTVSSASTKGPSVFPLAPSSKSTSGGTAALGCLVKDYFPEPVTVSWNSGALTSGVHTFPAVLQSSGLYSLSSVVTVPSSSLGTQTYICNVNHKPSNTKVDKKVEPKSCPEFLGGPSVFLFPPKPKDTLYITREPEVTCVVVDVSQEDPEVQFNWYVDGVEVHNAKTKPREEQFNSTYRVVSVLTVLHQDWLNGKEYKCKVSNKGLPSSIEKTISKAKGQPREPQVYTFPPSQEEMTKNQVSLRCLVKGFYPSDIAVEWESNGQPENNYKTTKPVLDSDGSFRLESRLTVDKSRWQEGNVFSCSVMHEALHNHYTQKSLSLSLGK
chain 2: DIQMTQSPSSLSASVGDRVTITCKSSQSLLYTSSQKNYLAWYQQKPGKAPKLLIYWASTRESGVPSRFSGSGSGTDFTLTISSLQPEDFATYYCQQYYAYPWTFGQGTKVEIKRTVAAPSVFIFPPSDEQLKSGTASVVCLLNNFYPREAKVQWKVDNALQSGNSQESVTEQDSKDSTYSLSSTLTLSKADYEKHKVYACEVTHQGLSSPVTKSFNRGEC
Kd ([1]; both partners purified): 160 nM
terminal half-life (T1/2) in hFcRn transgenic mice, 2.5 mg/kg intravenous [3]: 21 h

Now from value to molecule:

Kd [1]: 39 nM
Molecule: IgG1 YTE (antibody)

Kd [1]: 270 nM
Molecule: IgG1 mAb control (antibody)
